{"source": "paper PMC6815381", "about": "“Unravelling the diversity of glycoside hydrolase family 13 α-amylases from Lactobacillus plantarum WCFS1” (Microbial Cell Factories, 2019)", "proteins": {"B1": {"name": "Lp_0179 (Amy2), maltose-forming α-amylase (Lactiplantibacillus plantarum WCFS1) (protein)", "chain": "MARDTQTQLRNEMIYSVFVRNYSEAGNFAGVTADLQRIKDLGTDILWLLPINPIGEVNRKGTLGSPYAIKDYRGINPEYGTLADFKALTDRAHELGMKVMLDIVYNHTSPDSVLATEHPEWFYHDADGQLTNKVGDWSDVKDLDYGHHELWQYQIDTLLYWSQFVDGYRCDVAPLVPLDFWLEARKQVNAKYPETLWLAESAGSGFIEELRSQGYTGLSDSELYQAFDMTYDYDVFGDFKDYWQGRSTVERYVDLLQRQDATFPGNYVKMRFLENHDNARMMSLMHSKAEAVNNLTWIFMQRGIPLIYNGQEFLAEHQPSLFDRDTMVADRHGDVTPLIQKLVTIKQLPLLRAADYQLAVVEEGIVKITYRAAGEALTAWIPLKGQVTAVATKLAAGSYQNLLTDGPTEVVDGKLTVDGQPVLIKYVTNTAVTKVADQSN", "notes": "gene 1320 bp"}, "B2": {"name": "Lp_2757, maltogenic α-amylase (Lactiplantibacillus plantarum WCFS1) (protein)", "chain": "MQLAGIRHRPESEDTAVLAAHQLQVRLQTARDDVAQVEILFADSYLWQEGTTALERRIMQPGLATQGNQYWQTTLTVPTNRVVYAFLITDTIGATVGYGEGGFFDDVATNWQTVGNYFHMPYMHVSDAELPPAWVKETVWYQIFPERFANGVRQNDPANVQPWGAGRVHRDSFYGGDLPGITAHLDDLAALGVNGLYLCPIFTSPSNHKYDTIDHFEIDPHFGTKADFQALVDGAHARGMRVMLDAVFNHFGEQSPQWQDVIKNGEQSRFADWFHIHGWPVGRDPKTKRLNYETFATGAAMPKVNTQNPAVQAYLIDVTKYWIEQFGIDAWRFDVADEVDHGFWRALCGALRAIKPDVYLLGESWHSSQSLVGNGQFNAVMNYPLTQPILALFNGQLNPEDYVGKTNLELMMYRQPNQQAMFNALDTHDTPRLLTTLHGQLTKFKSALTLLMLLPGSPCIYYGTEVAMAGGADPDNRRCMNWQPDEQEQQVRQFVTRLIKFRRQQADFLATSQLTWTIDGHCLILTRTDVEQTIQGRFNLGAQAVSTVSGVSPILTAGITANEMAPGGFELTVA", "notes": "gene 1722 bp"}}, "substrate": "O=[N+]([O-])c1ccc(O[C@H]2O[C@H](CO)[C@@H](O[C@H]3O[C@H](CO)[C@@H](O)[C@H](O)[C@H]3O)[C@H](O)[C@H]2O)cc1", "assay": "purified protein", "format": "biochemical, Lactiplantibacillus plantarum", "settings": "50 mM MOPS pH 7.0, 20 mM NaCl, 1 mM DTT, 30 °C, substrate 0-10 mM", "data": [{"protein": "B1", "values": [{"measurement": "Km", "result": "320 ± 70", "unit": "µM"}, {"measurement": "Vmax", "result": 0.017, "unit": "µmol/min"}, {"measurement": "kcat", "result": "3.856 ± 3.33e-05", "unit": "s⁻¹"}]}, {"protein": "B2", "values": [{"measurement": "Km", "result": "620 ± 120", "unit": "µM"}, {"measurement": "Vmax", "result": 0.016, "unit": "µmol/min"}, {"measurement": "kcat", "result": "4.9142 ± 1.67e-05", "unit": "s⁻¹"}]}]}
